{"source": "IntAct's records for PubMed 31515488", "parents": {"B1": {"name": "NIF3-like protein 1 (Homo sapiens), Q9GZT8 (parent)", "chain": "MLSSCVRPVPTTVRFVDSLICNSSRSFMDLKALLSSLNDFASLSFAESWDNVGLLVEPSPPHTVNTLFLTNDLTEEVMEEVLQKKADLILSYHPPIFRPMKRITWNTWKERLVIRALENRVGIYSPHTAYDAAPQGVNNWLAKGLGACTSRPIHPSKAPNYPTEGNHRVEFNVNYTQDLDKVMSAVKGIDGVSVTSFSARTGNEEQTRINLNCTQKALMQVVDFLSRNKQLYQKTEILSLEKPLLLHTGMGRLCTLDESVSLATMIDRIKRHLKLSHIRLALGVGRTLESQVKVVALCAGSGSSVLQGVEADLYLTGEMSHHDTLDAASQGINVILCEHSNTERGFLSDLRDMLDSHLENKINIILSETDRDPLQVV", "partner": "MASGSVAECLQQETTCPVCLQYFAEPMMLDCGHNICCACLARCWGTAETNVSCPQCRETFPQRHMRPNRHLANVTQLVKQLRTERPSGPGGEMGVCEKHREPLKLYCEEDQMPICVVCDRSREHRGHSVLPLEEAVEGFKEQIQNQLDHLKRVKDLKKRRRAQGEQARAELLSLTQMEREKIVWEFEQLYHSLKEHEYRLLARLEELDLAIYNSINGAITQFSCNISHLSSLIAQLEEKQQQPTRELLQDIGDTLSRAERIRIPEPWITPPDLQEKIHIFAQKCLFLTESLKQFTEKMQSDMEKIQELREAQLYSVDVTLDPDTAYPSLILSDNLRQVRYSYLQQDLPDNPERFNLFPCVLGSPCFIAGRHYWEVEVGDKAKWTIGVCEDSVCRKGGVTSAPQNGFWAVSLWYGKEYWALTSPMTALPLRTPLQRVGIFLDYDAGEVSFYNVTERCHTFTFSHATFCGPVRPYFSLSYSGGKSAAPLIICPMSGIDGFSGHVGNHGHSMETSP"}, "B2": {"name": "U3 small nucleolar RNA-associated protein 25 homolog (Homo sapiens), Q68CQ4 (parent)", "chain": "MGKRGSRSQSQLLNTLTKKQKKHLRDFGEEHPFYDRVSRKEAKPQICQLSESSDSSDSESDSESEPQQVSGYHRLLATLKNVSEEEEEDEEEEEEEDSIVDDAEMNDEDGGSDVSVEEEMAAESTESPENVALSADPEGKEDGEEPPGTSQTSPEEFTDAKHESLFSLETNFLEEESGDNSSLKASQDPFLQHVNKELKEKAIQAVATNPKTTHELKWPILGQLFFSSKFQKLETFKPPKDIDLKSLHLQKPLESTWTKTNSQFLSGPQKSSSPFTPLQKELFLIMNSYRDLFYPERTALKNGEEIRHVYCLHVINHILKANAQVLGNNSRRRSQKFGVGDDDDFRDQGLTRPKVLIVVPFREAALRVVQLFISLLEGDSKKKIIVSNKKRFQGEYGSDPEERPPNLKRPEDYEAVFVGNIDDHFRIGVAILQRSIRLYAPFYSSDILIASPLGLRTIIGGEGEKKRDFDFLSSIELLIIDQADIYLMQNWEHVLHLMNHMNLLPLDSHGVDFSRVRMWSLNNWSKYYRQTLLFGALQDAQINSVFNKYCVNMQGQVAVRNVPMTGSISHVLVQLPHVFQRMEAENLASVIDARFNFFVNKILPQYRDAVMSHTLIYIPSYFDFVRLRNYFKKEELNFTHICEYTQKSGVSRARHFFLQGEKQFLLFTERFHFYKRYTIKGIRNLIFYELPTYPHFYSEICNMLRATNRGEEATWTCTVLYSKYDAQRLAAVVGVERAAQMLQSNKNVHLFITGEK"}, "B3": {"name": "G1/S-specific cyclin-D3 (Homo sapiens), P30281 (parent)", "chain": "MELLCCEGTRHAPRAGPDPRLLGDQRVLQSLLRLEERYVPRASYFQCVQREIKPHMRKMLAYWMLEVCEEQRCEEEVFPLAMNYLDRYLSCVPTRKAQLQLLGAVCMLLASKLRETTPLTIEKLCIYTDHAVSPRQLRDWEVLVLGKLKWDLAAVIAHDFLAFILHRLSLPRDRQALVKKHAQTFLALCATDYTFAMYPPSMIATGSIGAAVQGLGACSMSGDELTELLAGITGTEVDCLRACQEQIEAALRESLREASQTSSSPAPKAPRGSSSQGPSQTSTPTDVTAIHL"}, "B4": {"name": "Protein FAM9B (Homo sapiens), Q8IZU0 (parent)", "chain": "MAAWGKKHAGKDPVRDECEERNRFTETREEDVTDEHGEREPFAETDEHTGANTKKPEDTAEDLTAKRKRMKMDKTCSKTKNKSKHALRKKQLKRQKRDYIHSLKLLNVLEEYITDEQKEEEEEEGEEEELIRIFQEQQKKWQQYRSVRRERLKEMKLLRDQFVKALEDFEDLCDRVFSDEDSELDN", "partner": "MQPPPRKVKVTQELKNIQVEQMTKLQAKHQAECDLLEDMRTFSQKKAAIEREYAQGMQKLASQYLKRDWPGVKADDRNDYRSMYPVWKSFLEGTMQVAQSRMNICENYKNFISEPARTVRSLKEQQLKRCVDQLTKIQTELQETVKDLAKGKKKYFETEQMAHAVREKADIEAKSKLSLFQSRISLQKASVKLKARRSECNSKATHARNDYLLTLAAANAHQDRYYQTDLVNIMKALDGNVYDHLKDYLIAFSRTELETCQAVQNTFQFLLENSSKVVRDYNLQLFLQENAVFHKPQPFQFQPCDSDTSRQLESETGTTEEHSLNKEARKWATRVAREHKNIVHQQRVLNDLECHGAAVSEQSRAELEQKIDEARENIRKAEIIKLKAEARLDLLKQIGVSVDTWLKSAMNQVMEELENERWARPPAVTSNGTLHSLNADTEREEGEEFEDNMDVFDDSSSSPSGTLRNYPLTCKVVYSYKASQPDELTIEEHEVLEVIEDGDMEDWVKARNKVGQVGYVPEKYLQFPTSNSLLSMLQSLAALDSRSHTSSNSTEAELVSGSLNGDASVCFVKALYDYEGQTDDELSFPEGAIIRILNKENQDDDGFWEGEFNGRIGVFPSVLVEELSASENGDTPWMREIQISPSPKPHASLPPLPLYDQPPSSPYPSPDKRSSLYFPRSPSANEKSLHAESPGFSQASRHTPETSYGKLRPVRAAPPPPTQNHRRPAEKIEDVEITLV"}}}
{"variants_of": "B1", "details": "with tri27_human TRIM27, P14373"}
{"variant": "MLSSCVRPVPTTVRFVDSLICNSSRSFMDLKALLSSLNDFASLSFAESWDNVGLLVEPSPPHTVNTLFLTNDLTEEVMEEVLQKKADLILSYHPPIFRPMKRITWNTWKERLVIRALENRVGIYSPHTAYDAAPQGVNNWLAKGLGACTSRPIHPSKAPNYPTEGNHRVEFNVNYTQDLDKVMSAVKGIDGVSVTSFSARTGNEEQTRINLNCTQKALMQVVDFLSRNKQLYQKTEILSLEKPLLLHTGMGRLCTLDESVSLATMIDRIKRHLKLSHIRLALGVGRTLESQVKVVALCAGSGSSVLQGVEADLYLTGEMSHHDILDAASQGINVILCEHSNTERGFLSDLRDMLDSHLENKINIILSETDRDPLQVV", "note": "[T324I]", "effect of a mutation on the interaction": "disrupting interaction strength"}
{"variants_of": "B2", "details": "with rufy1_human RUFY1, Q96T51"}
{"variant": "Q67E", "effect of a mutation on the interaction": "with no effect"}
{"variant": "G111D", "effect of a mutation on the interaction": "with no effect"}
{"variants_of": "B2", "details": "with cep70_human CEP70, Q8NHQ1"}
{"variant": "Q67E", "effect of a mutation on the interaction": "with no effect"}
{"variant": "G111D", "effect of a mutation on the interaction": "with no effect"}
{"variants_of": "B2", "details": "with trim1_human MID2, Q9UJV3"}
{"variant": "Q67E", "effect of a mutation on the interaction": "with no effect"}
{"variant": "G111D", "effect of a mutation on the interaction": "with no effect"}
{"variants_of": "B3", "details": "with cdk4_human CDK4, P11802"}
{"variant": "MELLCCEGTRHAPRAGPDPRLLGDQRVLQSLLRLEERYVPRASYFQCVQREIKPHMRKMLAYWMLEVCEEQRCEEEVFPLAMNYLDRYLSCVPTRKAQLQLLGAVCMLLASKLRETTPLTIEKLCIYTDHAVSPRQLRDWEVLVLGKLKWDLAAVIAHDFLAFILHRLSLPRDRQALVKKHAQTFLALCATDYTFAMYPPSMIATGSIGAAVQGLGACSMSGDELTELLAGITGTEVDCLRACQEQIEAALRESLREASQTSSSPVPKAPRGSSSQGPSQTSTPTDVTAIHL", "note": "[A266V]", "effect of a mutation on the interaction": "with no effect"}
{"variant": "MELLCCEGTRHAPRAGPDPRLLGDQRVLQSLLRLEERYVPRASYFQCVQREIKPHMRKMLAYWMLEVCEEQRCEEEVFPLAMNYLDRYLSCVPTRKAQLQLLGAVCMLLASKLRETTPLTIEKLCIYTDHAVSPRQLRDWEVLVLGKLKWDLAAVIAHDFLAFILHRLSLPRDRQALVKKHAQTFLALCATDYTFAMYPPSMIATGSIGAAVQGLGACSMSGDELTELLAGITGTEVDCLRACQEQIEAALRESLREAAQTSSSPAPKAPRGSSSQGPSQTSTPTDVTAIHL", "note": "[S259A]", "effect of a mutation on the interaction": "with no effect"}
{"variant": "MELLCCEGTRHAPRAGPDPRLLGDQRVLQSLLRLEERYVPRASYFQCVQREIKPHMRKMLAYWMLEVCEEQRCEEEVFPLAMNYLDRYLSCVPTRKAQLQLLGAVCMLLASKLRETTPLTIEKLCIYTDHAVSSRQLRDWEVLVLGKLKWDLAAVIAHDFLAFILHRLSLPRDRQALVKKHAQTFLALCATDYTFAMYPPSMIATGSIGAAVQGLGACSMSGDELTELLAGITGTEVDCLRACQEQIEAALRESLREASQTSSSPAPKAPRGSSSQGPSQTSTPTDVTAIHL", "note": "[P134S]", "effect of a mutation on the interaction": "with no effect"}
{"variants_of": "B3", "details": "with cdk6_human CDK6, Q00534"}
{"variant": "MELLCCEGTRHAPRAGPDPRLLGDQRVLQSLLRLEERYVPRASYFQCVQREIKPHMRKMLAYWMLEVCEEQRCEEEVFPLAMNYLDRYLSCVPTRKAQLQLLGAVCMLLASKLRETTPLTIEKLCIYTDHAVSPRQLRDWEVLVLGKLKWDLAAVIAHDFLAFILHRLSLPRDRQALVKKHAQTFLALCATDYTFAMYPPSMIATGSIGAAVQGLGACSMSGDELTELLAGITGTEVDCLRACQEQIEAALRESLREASQTSSSPVPKAPRGSSSQGPSQTSTPTDVTAIHL", "note": "[A266V]", "effect of a mutation on the interaction": "with no effect"}
{"variant": "MELLCCEGTRHAPRAGPDPRLLGDQRVLQSLLRLEERYVPRASYFQCVQREIKPHMRKMLAYWMLEVCEEQRCEEEVFPLAMNYLDRYLSCVPTRKAQLQLLGAVCMLLASKLRETTPLTIEKLCIYTDHAVSPRQLRDWEVLVLGKLKWDLAAVIAHDFLAFILHRLSLPRDRQALVKKHAQTFLALCATDYTFAMYPPSMIATGSIGAAVQGLGACSMSGDELTELLAGITGTEVDCLRACQEQIEAALRDSLREASQTSSSPAPKAPRGSSSQGPSQTSTPTDVTAIHL", "note": "[E253D]", "effect of a mutation on the interaction": "with no effect"}
{"variant": "MELLCCEGTRHAPRAGPDPRLLGDQRVLQSLLRLEERYVPRASYFQCVQREIKPHMRKMLAYWMLEVCEEQRCEEEVFPLAMNYLDRYLSCVPTRKAQLQLLGAVCMLLASKLRETTPLTIEKLCIYTDHAVSSRQLRDWEVLVLGKLKWDLAAVIAHDFLAFILHRLSLPRDRQALVKKHAQTFLALCATDYTFAMYPPSMIATGSIGAAVQGLGACSMSGDELTELLAGITGTEVDCLRACQEQIEAALRESLREASQTSSSPAPKAPRGSSSQGPSQTSTPTDVTAIHL", "note": "[P134S]", "effect of a mutation on the interaction": "with no effect"}
{"variants_of": "B3", "details": "with tfp11_human TFIP11, Q9UBB9"}
{"variant": "MELLCCEGTRHAPRAGPDPRLLGDQRVLQSLLRLEERYVPRASYFQCVQREIKPHMRKMLAYWMLEVCEEQRCEEEVFPLAMNYLDRYLSCVPTRKAQLQLLGAVCMLLASKLRETTPLTIEKLCIYTDHAVSPRQLRDWEVLVLGKLKWDLAAVIAHDFLAFILHRLSLPRDRQALVKKHAQTFLALCATDYTFAMYPPSMIATGSIGAAVQGLGACSMSGDELTELLAGITGTEVDCLRACQEQIEAALRESLREAAQTSSSPAPKAPRGSSSQGPSQTSTPTDVTAIHL", "note": "[S259A]", "effect of a mutation on the interaction": "with no effect"}
{"variants_of": "B3", "details": "with cdn1a_human CDKN1A"}
{"variant": "MELLCCEGTRHAPRAGPDPRLLGDQRVLQSLLRLEERYVPRASYFQCVQREIKPHMRKMLAYWMLEVCEEQRCEEEVFPLAMNYLDRYLSCVPTRKAQLQLLGAVCMLLASKLRETTPLTIEKLCIYTDHAVSPRQLRDWEVLVLGKLKWDLAAVIAHDFLAFILHRLSLPRDRQALVKKHAQTFLALCATDYTFAMYPPSMIATGSIGAAVQGLGACSMSGDELTELLAGITGTEVDCLRACQEQIEAALRDSLREASQTSSSPAPKAPRGSSSQGPSQTSTPTDVTAIHL", "note": "[E253D]", "effect of a mutation on the interaction": "with no effect"}
{"variants_of": "B4", "details": "with fcsd2_human FCHSD2, O94868"}
{"variant": "R23H", "effect of a mutation on the interaction": "with no effect"}
